According to publication doi:10.1101/2020.05.01.070730 (bioRxiv, 2020):
Like-named read-outs stand apart in the source and are kept apart here.

Experiments:
Experiment in all cases: native PAGE shift
[1] = target: T1, MutS (Pseudomonas aeruginosa, UniProt Q9HY08 1-855)
T1 sequence: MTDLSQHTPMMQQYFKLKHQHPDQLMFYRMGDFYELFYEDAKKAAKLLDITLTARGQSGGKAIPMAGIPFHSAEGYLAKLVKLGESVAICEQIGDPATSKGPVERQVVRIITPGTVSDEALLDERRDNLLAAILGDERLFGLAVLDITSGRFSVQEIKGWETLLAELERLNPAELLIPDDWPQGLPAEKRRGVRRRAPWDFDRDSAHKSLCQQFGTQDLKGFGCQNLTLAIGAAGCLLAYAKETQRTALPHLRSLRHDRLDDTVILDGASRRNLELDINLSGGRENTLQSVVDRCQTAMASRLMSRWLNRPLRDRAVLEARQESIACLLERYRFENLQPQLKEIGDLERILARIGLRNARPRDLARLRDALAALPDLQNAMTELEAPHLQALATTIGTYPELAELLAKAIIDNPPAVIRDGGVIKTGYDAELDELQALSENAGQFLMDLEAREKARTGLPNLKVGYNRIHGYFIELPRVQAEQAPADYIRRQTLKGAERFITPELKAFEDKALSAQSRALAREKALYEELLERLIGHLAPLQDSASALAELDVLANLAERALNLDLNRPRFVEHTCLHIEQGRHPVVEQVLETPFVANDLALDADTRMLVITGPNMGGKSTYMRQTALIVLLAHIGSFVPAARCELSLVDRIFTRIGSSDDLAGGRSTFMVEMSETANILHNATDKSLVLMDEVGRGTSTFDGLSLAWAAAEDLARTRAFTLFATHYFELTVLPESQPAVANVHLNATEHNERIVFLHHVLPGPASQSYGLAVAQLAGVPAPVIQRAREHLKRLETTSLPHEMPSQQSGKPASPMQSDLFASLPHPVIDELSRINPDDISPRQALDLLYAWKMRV

[2] = target: T2, MutS R842E (Pseudomonas aeruginosa, UniProt Q9HY08 1-855, R842E)
T2 sequence: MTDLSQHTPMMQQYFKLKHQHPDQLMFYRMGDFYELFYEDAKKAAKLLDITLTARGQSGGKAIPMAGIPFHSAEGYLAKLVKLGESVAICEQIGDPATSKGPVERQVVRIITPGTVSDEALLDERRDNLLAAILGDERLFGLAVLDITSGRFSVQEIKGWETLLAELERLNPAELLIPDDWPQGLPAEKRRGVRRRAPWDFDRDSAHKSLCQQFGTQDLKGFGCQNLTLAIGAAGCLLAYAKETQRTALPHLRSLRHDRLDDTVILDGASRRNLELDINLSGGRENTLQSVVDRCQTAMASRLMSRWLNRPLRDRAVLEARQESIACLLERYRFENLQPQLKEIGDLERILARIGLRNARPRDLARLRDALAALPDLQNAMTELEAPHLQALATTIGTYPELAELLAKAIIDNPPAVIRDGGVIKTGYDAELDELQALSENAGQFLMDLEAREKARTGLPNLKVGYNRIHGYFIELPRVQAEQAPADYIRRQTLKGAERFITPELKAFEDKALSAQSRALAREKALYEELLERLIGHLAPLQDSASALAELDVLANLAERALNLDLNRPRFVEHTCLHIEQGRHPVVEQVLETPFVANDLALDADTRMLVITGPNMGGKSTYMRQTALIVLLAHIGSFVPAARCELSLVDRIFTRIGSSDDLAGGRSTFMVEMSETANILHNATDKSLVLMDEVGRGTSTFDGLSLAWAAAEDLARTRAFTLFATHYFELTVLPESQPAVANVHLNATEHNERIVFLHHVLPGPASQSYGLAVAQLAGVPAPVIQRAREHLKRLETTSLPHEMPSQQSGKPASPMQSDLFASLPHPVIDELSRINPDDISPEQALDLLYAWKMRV

[3] = target: T2, MutS R842E; remark: listed apart in the source
[4] = target: T1, MutS; remark: listed apart in the source
[5] = target: T1, MutS; remark: listed apart in the source
[6] = target: T1, MutS; remark: listed apart in the source

Binder	binding result [1]	binding result [3]	binding result [6]	other results
GT-pDNA 13 nt (dsDNA) DNA 1: ATGTGAATCAGTATGGTTGCTATCTGCTGAAG DNA 2: ATTTCCTTCAGCAGATAGTAACCATACTGATTCACAT	binds			binding result [2]: binds
CC-pDNA (dsDNA) DNA 1: ATGTGAATCAGTATGGTTCCTATCTGC DNA 2: ATTTCCTTCAGCAGATAGCAACCATACTGATTCACAT	binds	binds		
TC-pDNA (dsDNA) DNA 1: ATGTGAATCAGTATGGTTTCTATCTGC DNA 2: ATTTCCTTCAGCAGATAGCAACCATACTGATTCACAT	binds	binds		
GG-pDNA (dsDNA) DNA 1: ATGTGAATCAGTATGGTTGCTATCTGC DNA 2: ATTTCCTTCAGCAGATAGGAACCATACTGATTCACAT	binds	binds		
GA-pDNA (dsDNA) DNA 1: ATGTGAATCAGTATGGTTGCTATCTGC DNA 2: ATTTCCTTCAGCAGATAGAAACCATACTGATTCACAT	binds	binds		
AC-pDNA (dsDNA) DNA 1: ATGTGAATCAGTATGGTTACTATCTGC DNA 2: ATTTCCTTCAGCAGATAGCAACCATACTGATTCACAT		binds		binding result [4]: binds
CT-pDNA (dsDNA) DNA 1: ATGTGAATCAGTATGGTTCCTATCTGC DNA 2: ATTTCCTTCAGCAGATAGTAACCATACTGATTCACAT		binds		binding result [5]: binds
TG-pDNA (dsDNA) DNA 1: ATGTGAATCAGTATGGTTTCTATCTGC DNA 2: ATTTCCTTCAGCAGATAGGAACCATACTGATTCACAT		binds	binds	
CA-pDNA (dsDNA) DNA 1: ATGTGAATCAGTATGGTTCCTATCTGC DNA 2: ATTTCCTTCAGCAGATAGAAACCATACTGATTCACAT			binds	
TT-pDNA (dsDNA) DNA 1: ATGTGAATCAGTATGGTTTCTATCTGC DNA 2: ATTTCCTTCAGCAGATAGTAACCATACTGATTCACAT		binds	binds	
